Measured values taken from patent publication US11266746B2, “Therapeutic antitumor combination of a TLR4 ligand with other treatments” (THE UNITED STATES OF AMERICA, as represented by the …, priority 2016, dated 2022).
Entries after “also recorded” stand apart in the source; their conditions may differ.

Tested on: CT26 tumors
Experiment: Treatment of small (about 5 mm) established CT26 tumors in mice
Format: in vivo, Balb/c mice
Description: Balb/c mice were inoculated subcutaneously with 100,000 or 200,000 CT26 cells on day 1. […] On days 8, 12, 15 and 19 mice were administered PBS or 1 μg, 10 μg or 50 μg of rHMGN1. Tumor growth was monitored and plotted.
Small CT26 tumors were treated by a combination of one intraperitoneal (i.p.) injection of a suboptimal dose of cyclophosphamide or Cytoxan to reduce regulatory T cells (Treg), a key suppressor cell type in tumors, and four intratumoral (i.t.) administrations of HMGN1 within two weeks. Balb/c mice were subcutaneously inoculated with 100,000 or 200,000 CT26 cells on day 1. When the tumor size reached about 5 mm in diameter (by 4-6 days after tumor inoculation), mice were administered one dose of cyclophosphamide (100 mg/kg, i,p.) and/or HMGN1 protein (10 μg, intratumorally), twice a week for 2 weeks. PBS was administered i.t. or i.p. Tumor growth was monitored and plotted.

B1: High Mobility Group Nucleosome-binding protein 1 (protein, UniProt P05114 1-100, looked up)
Non-histone chromosomal …: MPKRKVSSAEGAAKEEPKRRSARLSAKPPAKVEAKPKKAAAKDKSSDKKVQTKGKRGAKGKQAEVANQETKEDLPAENGETKTEESPASDEAGEKEAKSD
notes: TLR4 ligand
tumor growth (small (about 5 mm) CT26 tumors, intratumoral rHMGN1 1, 10 or 50 μg on days 8, 12, 15 and 19): slowed down tumor growth, but did not completely eradicate tumors; also recorded: inhibited tumor growth in a dose dependent manner | percent survival (small CT26 tumors, intratumoral rHMGN1): improvement in percent survival
